Assay results published in patent US20230381328A1, “COMPOUND FOR THE PREVENTION OR TREATMENT OF MYASTHENIA GRAVIS” (ABLEVIA BIOTECH GMBH, priority 2020, published 2023).
Where no end group is shown, it is not given here.

Target: monoclonal antibody mAB 198
Experiment: peptide microarray, fluorescence, cyclic peptide

Row | Binder | relative signal [%]
1 | NPADYGY (also: cyclic peptide, ring type and places not given here) [NPADYGY, cyclic mimotope] | 11.8
2 | VRLRINPADYG (also: cyclic peptide, mode of cyclisation not given here) | 10
3 | VRLRGNPAD (also: cyclic peptide, mode of cyclisation not given here) | 9.9
4 | VRLRWNPADYS (also: cyclic peptide, mode of cyclisation not given here) | 10.5
5 | VRLRLNPADYG (also: cyclic peptide, mode of cyclisation not given here) | 9.7
6 | ALRWNPADY (also: cyclic peptide, mode of cyclization not given here) | 11.5
7 | RWNPADF (also: cyclic peptide, ring type and places not given here) [RWNPADF, cyclic mimotope] | 9.1
8 | LRWNPADYR (also: cyclic peptide, mode of cyclisation not given here) | 10.3
9 | GGGSLRRNPAD (also: cyclic peptide, mode of cyclisation not given here) | 12.5
10 | GSLRWNPADYD (also: cyclic peptide, mode of cyclisation not given here) | 10.2
11 | DVRLRQNPADY (not fully specified; cyclic peptide) [DVRLRONPADY, cyclic mimotope] | 8.8
12 | GGSLRWNPADR (also: cyclic peptide, mode of cyclisation not given here) | 10.3
13 | DVRLRYNPADY (also: cyclic peptide, mode of cyclisation not given here) | 10.5
14 | RANPADY (also: cyclic peptide, ring type and places not given here) [RANPADY, cyclic mimotope] | 12.2
15 | DVRLRWNPSDY (also: cyclic peptide, mode of cyclisation not given here) | 10.5
16 | QLRWNPADY (also: cyclic peptide, ring type and places not given here) | 10.7
17 | WNPDDYR (also: cyclic peptide, mode of cyclisation not given here) [WNPDDYR, cyclic mimotope] | 9
18 | LRPNPADYG (also: cyclic peptide, mode of cyclisation not given here) | 10
19 | GSLRWNPADYP (also: cyclic peptide, mode of cyclisation not given here) | 12.4
20 | GSLRFNPADYG (also: cyclic peptide, mode of cyclisation not given here) | 10.4
21 | RPNPADYGG (also: cyclic peptide, ring type and places not given here) | 11.9
22 | RLRGNPADYGG (also: cyclic peptide, ring type and places not given here) | 9
23 | TLRWNPADY (also: cyclic peptide, mode of cyclisation not given here) | 9.9
24 | LRWNPADYPGI (also: cyclic peptide, mode of cyclisation not given here) | 8.9

Row | Binder | relative signal [%]
25 | GSLRWNPADYQ (also: cyclic peptide, mode of cyclisation not given here) | 9.7
26 | NPADYGD (also: cyclic peptide, mode of cyclisation not given here) [NPADYGD, cyclic mimotope] | 12.6
27 | RLRQNPADY (not fully specified; cyclic peptide) [RLRONPADY, cyclic mimotope] | 10.6
28 | RPRWNPADY (also: cyclic peptide, ring type and places not given here) | 12.4
29 | RLLWNPADY (also: cyclic peptide, ring type and places not given here) | 9.7
30 | RLHWNPADY (also: cyclic peptide, ring type and places not given here) | 10.8
31 | RWNPADR (also: cyclic peptide, ring type and places not given here) [RWNPADR, cyclic mimotope] | 11
32 | SLYWNPADY (also: cyclic peptide, mode of cyclisation not given here) | 9.4
33 | RLRWNPADYHG (also: cyclic peptide, ring type and places not given here) | 10.1
34 | RSRWNPADY (also: cyclic peptide, ring type and places not given here) | 9.8
35 | LRWNPADYP (also: cyclic peptide, mode of cyclisation not given here) | 13.1
36 | GGSLRYNPADY (also: cyclic peptide, mode of cyclisation not given here) | 11.5
37 | LRGNPAD (also: cyclic peptide, mode of cyclisation not given here) [LRGNPAD, cyclic mimotope] | 9.1
38 | RLRWNPADYGP (also: cyclic peptide, ring type and places not given here) | 10
39 | RLRPNPADY (also: cyclic peptide, ring type and places not given here) | 9.8
40 | RIRWNPADY (also: cyclic peptide, ring type and places not given here) | 11.5
41 | SLRWNPADYHG (also: cyclic peptide, mode of cyclisation not given here) | 8.7
42 | RLRWNPADYGS (also: cyclic peptide, ring type and places not given here) | 9.7
43 | VNPADYG (also: cyclic peptide, mode of cyclisation not given here) [VNPADYG, cyclic mimotope] | 12.5
44 | SLRYNPADY (also: cyclic peptide, mode of cyclisation not given here) | 12.2
45 | GSLRINPADYG (also: cyclic peptide, mode of cyclisation not given here) | 12.1
46 | GSLRWNPADYN (also: cyclic peptide, mode of cyclisation not given here) | 10
47 | LRWNPADYGGF (also: cyclic peptide, mode of cyclisation not given here) | 10.3
